Source: US20080009025A1 (published 2008)

Target: T1, PIFtide (24 residue synthetic peptide encompassing the PDK1 binding site on PIF) (human)
T1 construct: also called wild type PIF peptide; 24 residue PIF peptide
T1 peptide: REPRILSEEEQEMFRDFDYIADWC
Experiment: method not stated

B1: GST-PDK1[I119A] (enzyme, not shown: a dimerising Fc or GST; small tags and cut ends)
chain: MARTTSQLYDAVPIQSSVVLCSCPSPSMVRTQTESSTPPGIPGGSRQGPAMDGTAAEPRPGAGSLQHAQPPPQPRKKRPEDFKFGKILGEGSFSTVVLARELATSREYAIKILEKRHIAKENKVPYVTRERDVMSRLDHPFFVKLYFTFQDDEKLYFGLSYAKNGELLKYIRKIGSFDETCTRFYTAEIVSALEYLHGKGIIHRDLKPENILLNEDMHIQITDFGTAKVLSPESKQARANSFVGTAQYVSPELLTEKSACKSSDLWALGCIIYQLVAGLPPFRAGNEYLIFQKIIKLEYDFPEKFFPKARDLVEKLLVLDATKRLGCEEMEGYGPLKAHPFFESVTWENLHQQTPPKLTAYLPAMSEDDEDCYGNYDNLLSQFGCMQVSSSSSSHSLSASDTGLPQRSGSNIEQYIHDLDSNSFELDLQFSEDEKRLLLEKQAGGNPWHQFVENNLILKMGPVDKRKGLFARRRQLLLTEGPHLYYVDPVNKVLKGEIPWSQELRPEAKNFKTFFVHTPNRTYYLMDPSGNAHKWCRKIQEVWRQRYQSHPDAAVQ
fold decrease in affinity (against wild type PDK1): ~10 fold
